In US20190162720A1:

Key:
[1] = target: anti-biotin antibody (Abcam plc., ab53494, Rabbit polyclonal); assay: SPR Biacore T200; protein A/G 100 µg/mL fed over anti-biotin antibody on the chip (Example 1)
[2] = target: anti-biotin antibody (Abcam plc., ab53494, Rabbit polyclonal); assay: SPR Biacore T200; protein A/G 100 µg/mL fed over anti-biotin antibody on the chip (Example 2)
[3] = target: anti-biotin antibody (Abcam plc., ab53494, Rabbit polyclonal); assay: SPR Biacore T200; protein A/G 100 µg/mL fed over anti-biotin antibody on the chip (Example 3)
[4] = target: anti-biotin antibody (Abcam plc., ab53494, Rabbit polyclonal); assay: SPR Biacore T200; protein A/G 100 µg/mL fed over anti-biotin antibody on the chip (Example 4)
[5] = target: anti-biotin antibody (Abcam plc., ab53494, Rabbit polyclonal); assay: SPR Biacore T200; protein A/G 100 µg/mL fed over anti-biotin antibody on the chip (Example 5)
[6] = target: anti-CRP antibody (R&D Systems, Inc., Human C-Reactive protein Antibody, Monoclonal Mouse IgG2B, MAB17071-500); assay: SPR Biacore T200; anti-CRP antibody 100 µg/mL fed over protein A/G held on the first antibody (Example 7)
[7] = target: anti-CRP antibody (R&D Systems, Inc., Human C-Reactive protein Antibody, Monoclonal Mouse IgG2B, MAB17071-500); assay: SPR Biacore T200; anti-CRP antibody 100 µg/mL fed over protein A/G held on anti-mPEG antibody (Example 9)
[8] = target: anti-CRP antibody (R&D Systems, Inc., Human C-Reactive protein Antibody, Monoclonal Mouse IgG2B, MAB17071-500); assay: SPR Biacore T200; anti-CRP antibody 100 µg/mL fed over protein A/G held on anti-BSA antibody (Example 15)
[9] = target: anti-CRP antibody (R&D Systems, Inc., Human C-Reactive protein Antibody, Monoclonal Mouse IgG2B, MAB17071-500); assay: SPR Biacore T200; anti-CRP antibody 100 µg/mL fed over protein A/G held on anti-BSA antibody (Example 16)
[10] = target: anti-CRP antibody (R&D Systems, Inc., Human C-Reactive protein Antibody, Monoclonal Mouse IgG2B, MAB17071-500); assay: SPR Biacore T200; anti-CRP antibody 100 µg/mL fed over protein A/G held on anti-BSA antibody (Example 17)
[11] = target: anti-CRP antibody (R&D Systems, Inc., Human C-Reactive protein Antibody, Monoclonal Mouse IgG2B, MAB17071-500); assay: SPR Biacore T200; anti-CRP antibody 100 µg/mL fed over protein A/G held on anti-mPEG antibody (Example 10)
[12] = target: anti-BSA antibody (Bioss Inc., bs-0292R, polyclonal antibody); assay: SPR Biacore T200; protein A/G (six domains) 100 µg/mL fed over anti-BSA antibody on the chip (Example 15)
[13] = target: anti-BSA antibody (Bioss Inc., bs-0292R, polyclonal antibody); assay: SPR Biacore T200; protein A/G (six domains) 100 µg/mL fed over anti-BSA antibody on the chip (Example 16)
[14] = target: anti-BSA antibody (Bioss Inc., bs-0292R, polyclonal antibody); assay: SPR Biacore T200; protein A/G (six domains) 100 µg/mL fed over anti-BSA antibody on the chip (Example 17)
[15] = target: anti-CRP antibody (R&D Systems, Inc., Human C-Reactive protein Antibody, Monoclonal Mouse IgG2B, MAB17071-500); assay: SPR Biacore T200; anti-CRP antibody 100 µg/mL fed over protein A/G held on anti-biotin antibody (Example 12)
[16] = target: anti-CRP antibody (R&D Systems, Inc., Human C-Reactive protein Antibody, Monoclonal Mouse IgG2B, MAB17071-500); assay: SPR Biacore T200; anti-CRP antibody 100 µg/mL fed over protein A/G held on anti-biotin antibody (Example 13)
[17] = target: anti-mPEG monoclonal antibody (Abcam plc., ab51257, Mouse monoclonal, Anti-Polyethylene glycol antibody [PEG-B-47]); assay: SPR Biacore T200; protein A/G (six domains) 101 µg/mL fed over anti-mPEG antibody on the mPEG chip (Example 9)
[18] = target: anti-adiponectin antibody (R&D Systems, Inc., Human Adiponectin/Acrp30 Antibody, Monoclonal Mouse IgG2B, MAB10651); assay: SPR Biacore T200; anti-adiponectin antibody 100 µg/mL fed over protein A/G held on the first antibody (Example 1)
[19] = target: anti-adiponectin antibody (R&D Systems, Inc., Human Adiponectin/Acrp30 Antibody, Monoclonal Mouse IgG2B, MAB10651); assay: SPR Biacore T200; anti-adiponectin antibody 100 µg/mL fed over protein A/G held on the first antibody (Example 2)
[20] = target: anti-adiponectin antibody (R&D Systems, Inc., Human Adiponectin/Acrp30 Antibody, Monoclonal Mouse IgG2B, MAB10651); assay: SPR Biacore T200; anti-adiponectin antibody 100 µg/mL fed over protein A/G held on the first antibody (Example 3)
[21] = target: anti-adiponectin antibody (R&D Systems, Inc., Human Adiponectin/Acrp30 Antibody, Monoclonal Mouse IgG2B, MAB10651); assay: SPR Biacore T200; anti-adiponectin antibody 100 µg/mL fed over protein A/G held on the first antibody (Example 4)
[22] = target: anti-adiponectin antibody (R&D Systems, Inc., Human Adiponectin/Acrp30 Antibody, Monoclonal Mouse IgG2B, MAB10651); assay: SPR Biacore T200; anti-adiponectin antibody 100 µg/mL fed over protein A/G held on the first antibody (Example 5)
[23] = target: anti-CRP antibody (R&D Systems, Inc., Human C-Reactive protein Antibody, Monoclonal Mouse IgG2B, MAB17071-500); assay: SPR Biacore T200; anti-CRP antibody 100 µg/mL fed over protein A/G held on anti-streptavidin antibody (Example 14)
[24] = target: anti-mPEG monoclonal antibody (Abcam plc., ab51257, Mouse monoclonal, Anti-Polyethylene glycol antibody [PEG-B-47]); assay: SPR Biacore T200; protein A/G (six domains) 1,000 µg/mL fed over anti-mPEG antibody on the mPEG chip (Example 10)
[25] = target: anti-streptavidin antibody (R&D Systems, Inc., Streptavidin Antibody, Recombinant Monoclonal Rabbit IgG Clone #1220C, MAB9020); assay: SPR Biacore T200; protein A/G (six domains) 100 µg/mL fed over anti-streptavidin antibody on the chip (Example 14)
[26] = target: anti-biotin monoclonal antibody (Abcam plc., ab36406, Mouse monoclonal); assay: SPR Biacore T200; protein A/G (six domains) 25 µg/mL fed over anti-biotin monoclonal antibody on the chip (Example 7)
[27] = target: anti-biotin monoclonal antibody (Abcam plc., ab36406, Mouse monoclonal); assay: SPR Biacore T200; protein A/G (six domains) 100 µg/mL fed over anti-biotin monoclonal antibody on the biotin-PEG chip (Example 12)
[28] = target: anti-biotin monoclonal antibody (Abcam plc., ab36406, Mouse monoclonal); assay: SPR Biacore T200; protein A/G (six domains) 100 µg/mL fed over anti-biotin monoclonal antibody on the biotin-PEG chip (Example 13)

Substance: protein A/G (Pierce 21186, Recombinant Protein A/G from E. coli, six domains)
- amount of the protein A/G immobilized [1]: 558 RU
- amount of the protein A/G immobilized [2]: 718 RU
- amount of the protein A/G immobilized [3]: 890 RU
- amount of the protein A/G immobilized [4]: 884 RU
- amount of the protein A/G immobilized [5]: 890 RU
- Amount of second antibody immobilized [6]: 2300 RU
- Amount of second antibody immobilized [7]: 2840 RU
- Amount of second antibody immobilized [8]: 2800 RU
- Amount of second antibody immobilized [9]: 2820 RU
- Amount of second antibody immobilized [10]: 2680 RU
- Amount of second antibody immobilized [11]: 3450 RU
- amount of the protein A/G immobilized [12]: 602 RU
- amount of protein A/G immobilized [13]: 497 RU
- amount of the protein A/G immobilized [14]: 507 RU
- Amount of second antibody immobilized [15]: 2330 RU
- Amount of second antibody immobilized [16]: 2890 RU
- amount of the protein A/G immobilized [17]: 637 RU
- Amount of second antibody immobilized [18]: 1100 RU
- Amount of second antibody immobilized [19]: 935 RU
- Amount of second antibody immobilized [20]: 1610 RU
- Amount of second antibody immobilized [21]: 1620 RU
- Amount of second antibody immobilized [22]: 1560 RU
- Amount of second antibody immobilized [23]: 3400 RU
- amount of the protein A/G immobilized [24]: 685 RU
- amount of the protein A/G immobilized [25]: 716 RU
- amount of the protein A/G immobilized [26]: 622 RU
- amount of the protein A/G immobilized [27]: 603 RU
- amount of the protein A/G immobilized [28]: 828 RU
